According to patent US20230067757A1 (NOVAROCK BIOTHERAPEUTICS, published 2023):
Positions count from the first letter of the chain named.

B1: Hu-13 (antibody, V domains shown)
VH: EVQLLESGGGLVQPGGSLRVACAASGFPLRSYAMSWVRQAPGKGLEWVSVTSGSGGSTYYADSVKGRFTISRDNSKSTVYLQMNSLRAEDTAVYYCAKDRGYDILTGYYDYFYGMDVWGQGTTVTVSS
VL: DIQMTQSPSSLSASVGDRVTITCRASQGIRNDLGWFQQKPGKAPKRLIYAASSLQSGVPSRFSGSGSGTEFTLTISSLQPEDFATYYCLQHNSYPYTFGQGTKLEIK
B2: Hu-1 (antibody, V domains shown)
VH: QVQLVESGGGVVQPGRSLRLSCAASGFTFSNYGMYWVRQAPGKGLEWVAVIWYDGSNKNYADSVKGRFTISRDNSKNTLNLQMNSLRAEDTAVYYCARRGYDILTGYDYYGMDVWGQGTTVTVSA
VL: QTVVTQEPSFSVSPGGTVTLTCGLSSGSVSTSYYPSWYQQTPGQAPRTLIYRTNTRSSGVPDRFSGSILGNKAALTISGAQAPDESNYYCVLYMGSGIWVFGGGTKLTVL
B3: Hu-4 (antibody, V domains shown)
VH: B2 VH with N31F, Y35H, A61V, N80Y, G100N, Y107R, A125S
VL: B2 VL with S25N, R52S, S78T, P83D, E85D, N87D
B4: Hu-8 (antibody, V domains shown)
VH: QVQLVESGGGVVQPGRSLRLSCAASGFTFSSYGMHWVRQAPGKGLEWVAVIWYDGSNKKYADSVKGRFTISRDNSKNTLYLQMNSLRAEDTAVYYCARRYDVLTAYPYYFYYNMDVWGPGTTVTVSS
VL: B2 VL with S25N, R52S, S78T, P83D, N87D
B5: Hu-11 (antibody, V domains shown)
VH: QVHLVQSGAEVKKPGASVKVSCKASGYTFTSYYIHWVRQAPGQGLEWMGIINPSGGNTIYAQKFQGRVTMTRDTSTTTVYVELSSLRSEDTAVYYCARDHYDILTGYYPLYYGMDVWGQGTTVTVSS
VL: SYELTQPLSVSVALGQTARITCGGNNIGSKNVHWYQQKPGQAPVLVIYRDSNRPSGIPERFSGSKSGNTATLTISRAQAGDEADYYCQVWDSSTAVFGGGTQLTAL
B6: Ms13 (antibody, V domains shown)
VH: EVQLQQSGPELVKPGASVKMSCKASGYTFTRYIMHWVKQKPGQGLEWIGYFNPYNDDSKTSEKFKGKATLTSDKSSSTAYMEINSLTSEDSAVYYCAKLRQERIAYWGQGTLVTVSA
VL: DIQMNQSPSSLSASLGDTITITCHASQNIDVWLSWYQQKPGNFPKLLIYKASNLHTGVPSRFSGSGSGTGFTLTISSLQPEDIATYYCQQGQSYPLTFGAGTKLELK
B7: Ms15 (antibody, V domains shown)
VH: EVQLQQSGPELVRPGASVKMSCRASGYTFTNYIIHWVKQKPGQGLEWIGYFNPYNDGTKYNEIFKDKATLTSDKSSSTAYMELRSLTSEDSAVYYCAKLRQERIAYWGQGTLVTVSA
VL: B6 VL with A25V, F43I
B8: Ms17 (antibody, V domains shown)
VH: B6 VH with R31N, M34I, D57G, S58I, K59E, T60Y, I83L, N84S, A97S, I104F
VL: B6 VL with D30N, F43I
B9: Ms22 (antibody, V domains shown)
VH: QVQLKESGPGLVAPSQSLSITCTVSGFSLTSNGVHWVRQPPGKGLEWLGVIWAGGSTNYNSALMSRLSISKDNSKSQVFLKMNSLQTHDTAMYYCARDKYDGTGFDYWGQGTTLTVSS
VL: QIVLTQSPAIMSASPGEKVTMTCSASSSVSNMYWYQQKPGSSPRLLIYDTSNLASGVPVRFSGSGSGTSYSLTISRMEAEDAATYYCQQWSSYPYTFGGGTKLEIK
B10: Ms19 (antibody, V domains shown)
VH: EVQLQQSGPELVKPGASVKMSCKASGYTFTSYVIHWVKQKPGQGLEWIGYINPYNDGSKYNEKFKGKATLTSDKSSSTAYMELSSLTSEDSAVYYCAREGYGKRNALDYWGQGTSVTVSS
VL: DIVMTQSPSSLSVSAGERVTMSCKSSQSLLNSGNQKNYLAWYQQKPGQPPKLLIYGASTRESGVPDRFTGSGSGTDFTLIISSVQVEDLAVYYCQNDHFYPLTFGAGTKLELK
B11: Ms18 (antibody, V domains shown)
VH: QVQLKESGPGLVAPSQSLSITCTVSGFSLISYGVHWVRQPPGKGLEWLGVIWAGGNTNYNSALMSRLSISKDNSKSQVFLKMNSLQTDDTAMYYCARVYYGNSFDYWGQGTTLTVSS
VL: DIVMTQSPSSLTVTAGEKVTMSCKSSQSLLNSGNQKNYLTWYQQKPGQPPKLLIYWASTRQSGVPDRFTGSGSGTDFSLTISSVQAEDLAVYYCHNDYTYPLTFGAGTKLELK
B12: Ms20 (antibody, V domains shown)
VH: EIQLQQSGPELMKPGASVKISCKASGYSFTSYYMHWVKQSHGKSLEWIGYFDPYNGGTNYNQKFKGKATLTADKSSSTAYMHLSSLTSEDSAVYYCACYRFFAVWGAGTTVTVSS
VL: B11 VL with Q61E, S78T, H95Q, T99S
B13: Ms21 (antibody, V domains shown)
VH: DVQLVESGGGLVQPGGSRKLSCAASGFTFSTFGMHWVRQAPEKGLEWVAFINGDSSSIYYADTVKGRFTISRDNPKNILFLQMTSLRSEDTAMYYCARFARGNSFDYWGQGTTLTVSS
VL: B11 VL with L30F, G47W, Q61E, S78T, S82T, A86T, H95Q, N96I, D97G

molecular target: human claudin 18 isoform 2 (claudin 18.2) (human); test: cell-based or functional assay

ADCC EC50, CHO-18.2 target cells (mouse FcγRIV reporter bioluminescence) [nM] | Binder
1.17 | B1
0.77 | B2
2.39 | B3
1.42 | B4
1.51 | B5

molecular target: T1, human claudin 18 isoform 2 (claudin 18.2) (human); test: imaging, PATU8988S cells (endogenous CLDN18.2); +++ = EC50 between 2 nM and 20 nM
T1 construct: Recombinant on transfected CHO cells (CHO-CLDN18.2) or endogenous on tumor cell lines PATU8988S, NUGC-4, KATOIII; the cell line is named under assay; also called CLDN18.2

EC50 [nM] | Binder
2 to 20 | B6
2 to 20 | B7
2 to 20 | B8
2 to 20 | B9
2 to 20 | B10
2 to 20 | B11
2 to 20 | B12
2 to 20 | B13

molecular target: T2, human claudin 18 isoform 1 (claudin 18.1) (human, UniProt P56856 1-261); test: imaging, CHO-CLDN18.1 cells, single concentration (FIG. 3A)
T2 construct: Recombinant on transfected CHO cells (CHO-CLDN18.1); also called CLDN18.1
Method: (§1) The specific cellular binding affinity of anti-Claudin18.2 antibodies was tested on CHO-CLDN18.2 (transfected CHO cell expressing recombinant human CLDN18.2) and CHO-CLDN18.1 (transfected CHO cell expressing recombinant human CLDN18.1) cells. The cells were plated in complete media containing F12 with 10% FBS, then incubated overnight at 37° C., anti-Claudin18.2 antibodies were serial diluted and added to the assay plates, incubated at 4° C. for 2 hours, followed by fixing cells and further staining the cells for 30 minutes with Alexa Fluor® 488 Goat Anti-Human IgG (H+L) secondary antibody, invitrogen Cat #A-11013 for detection. The binding was assessed by imaging the cells and quantifying the fluorescence intensity using a Biotek Cytation.

T2 sequence (P56856 whole entry, canonical isoform): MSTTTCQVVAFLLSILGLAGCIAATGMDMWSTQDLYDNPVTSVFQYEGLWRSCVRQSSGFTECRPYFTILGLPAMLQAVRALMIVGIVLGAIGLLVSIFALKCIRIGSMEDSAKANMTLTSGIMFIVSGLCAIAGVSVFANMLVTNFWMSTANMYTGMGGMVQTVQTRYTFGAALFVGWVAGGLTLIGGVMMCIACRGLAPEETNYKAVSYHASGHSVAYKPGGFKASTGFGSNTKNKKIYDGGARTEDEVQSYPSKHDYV

binding result | Binder
no binding (tested: 10 µg/ml) | B6
no binding (tested: 10 µg/ml) | B7
no binding (tested: 10 µg/ml) | B8
no binding (tested: 10 µg/ml) | B9
no binding (tested: 10 µg/ml) | B10
no binding (tested: 10 µg/ml) | B11
no binding (tested: 10 µg/ml) | B12
no binding (tested: 10 µg/ml) | B13

molecular target: T1, human claudin 18 isoform 2 (claudin …); test: immunofluorescence imaging, CHO-CLDN18.2 cells, serial dilution
Method: as §1

EC50 [nM] | Binder
1.2 | B6
1.8 | B7
1.4 | B8
2.6 | B9
2.3 | B10
5.6 | B1
3.6 | B2
5.2 | B3
3.7 | B4
1.3 | B11
1.3 | B12
1.5 | B13
17 | B5

molecular target: T2, human claudin 18 isoform 1 (claudin …); test: immunofluorescence imaging on CHO cells expressing human CLDN18.1, antibody at 10 µg/ml
Method: as §1

binding result | Binder
no binding (tested: 10 µg/ml) | B2
no binding (tested: 10 µg/ml) | B3

molecular target: T1, human claudin 18 isoform 2 (claudin …); test: cell-based or functional assay

Binder | endocytosis derived cell toxicity EC50, CHO-18.2 cells (anti-IgG Fc-MMAF co-internalization) [nM]
B1 | 2.16
B2 | 1.61
B3 | 1.55
B4 | 1
B5 | 1.31

molecular target: T1, human claudin 18 isoform 2 (claudin …); test: cell-based or functional assay; remark: another data set of the same source

Binder | endocytosis derived cell toxicity EC50, CHO-18.2 cells (anti-IgG Fc-MMAF co-internalization) [nM]
B6 | 0.71
B7 | 1.15
B8 | 0.81
B9 | 1.61
B10 | 1.36
B11 | 1.39
B12 | 1.07
B13 | 0.95

molecular target: T1, human claudin 18 isoform 2 (claudin …); test: imaging, PATU8988S cells (endogenous CLDN18.2); ++ = EC50 between 20 nM and 100 nM
Method: Tumor cells were plated in complete media containing RPMI1640 with +10% FBS, then incubated overnight at 37° C., Claudin18.2 antibodies were serial diluted and added to the assay plates, incubated at 4° C. for 2 hours, followed by fixing cells and further staining the cells for 30 minutes with Alexa Fluor® 488 Goat Anti-Human IgG (H+L) secondary antibody (invitrogen Cat #A-11013) for detection. The binding was assessed by imaging the cells and quantifying the fluorescence intensity using a Biotek Cytation.

EC50 [nM] | Binder
20 to 100 | B1
20 to 100 | B2
20 to 100 | B3
20 to 100 | B4
20 to 100 | B5
